Data: the nanobody polyreactivity screen of Harvey et al. (2022)

Experiment: yeast display, Sf9 membrane polyspecificity reagent, FACS + sequencing; frameworks hold sequencing errors
Procedure, shortened: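 Nanobodies came from a synthetic yeast display library in Saccharomyces cerevisiae BJ5465, induced with galactose for 36–48 hours and stained for 1 hour at 4 °C with 10% biotinylated, detergent-solubilized Sf9 membrane reagent. Cells were enriched on streptavidin microbeads and then FACS-sorted, with low and high (top ~1%) gates set on anti-HA fluorescence for expression and streptavidin fluorescence for reagent binding. Each polyreactivity label reflects the gate a clone came from. Genes were amplified by colony PCR, sequenced by MiSeq 2 × 250 and filtered by CDR length.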

Sequence	polyreactivity (PSR sort gate)
QVQLVESGGGLVQAGGSLRLSCAASGRTFYLYTMGWYIQAPGKERELVAAISRGGRTYADSVKGRFTISRDNAKNTVYLQMNSLKPEDTAVYYCAAESVYHGWSYQHGKGDYWGQGTQVTVSS	low polyreactivity
QVQLVESGGGLVQAGGSLRLSCAASGLTLAPYAMGWYRQAPGKERELVAVITRRGGRTYYADSVKGRFTISRDNAKNTVYLQMNSLKPEDTAVYYCNADTANYADGLDYWGQGTQVTVSS	low polyreactivity
QVQLQESGGGLVQAGGSLRLSCAASGSISGPQVMVWYRQAPGKEREFVAAINVGANTYYADNVKGRFTISRDNAKNTVYLQMNSLKPEDTAVYYCAAVYYGDIGHESWGQGTQVTVSC	low polyreactivity
QVQLVESGGGLVQAGGSLRLSCAASGSIFEPNAMGWYRQAPGKEREFVAAISGSGGSTYYADSVKGRFTISRDNAKNTVYLQMNSLKPEDTAVYYCATRGKRSYFRTFYYWGQGTQVTVSS	high polyreactivity
QVQLVESGGGLVQAGGSLRLSCAASGGIFAYNAMGWYRQAPGKERELVASISSGGNTYYADSVKGRFTISRDNAKNTVYLQMNSLKPEDTAVYYCNARFYRSWRRFSREPGYNYWGQGTQVTVSS	high polyreactivity
QVQLVESGGGLVQAGGSLRLSCAASGRIFNSNTMGWYRQAPGKERELVAAITYSGGSTYYADSVKGRFTISRDNAKNTVYLQMNSLKPEDTAVYYCAADFWEYDGPWYANDYDSWGQGTQVTVSS	low polyreactivity
QVQLVESGGGLVQAGGSLRLSCAASGSTFVGYAMGWYRQAPGKERELVAGITASGTNTYYADSVKGRFTISRDNAKNTVYLQMNSLKPEDTAVYYCAAAFVRPPPYVGYSRFDYWGQGTQVTVSS	high polyreactivity
QDQLVESGGGLVQAGGSLRLSCAASGLTFQYNTMGWYRQAPGKERELVARINWGGDSTYYADSVKGRFTISRDNAKNTVYLQLYSLKPEVTAVYYCAAPGYSGRYGYYTYYLYVYWGQGTQVTVSS	low polyreactivity
QVQLVESGGGLVQAGGSLRLSCAASGSTCYKYAMGWYRKAPGKERELVAVITKSGGSTYYADSVKGRFTISRDNAKNPVYLQMNSLTPEDTAVYYCGTVQSGRVRTYDYCGQGTQVTVSS	high polyreactivity
QVQLVESGGGLVQAGGSLRLSCAASGNTFRAYAMGWYRQAPGKERELVATITWSGGITDYADSVKGRFTISRDNAKNTVSLQMNSLKPEDTAVYDCAARSYRWWNFNYWGQGTQVTVSS	high polyreactivity
QVQLVESGGGLVQAGGSLRLSCAASGITFSAYAMGWYRQAPGKERELVARISTDADTYYADSVKGRFTISRDNAKNTVYLQMNSLKPEDTAVYYCNADWSWYNYYDFDYWGQGTQVTVSS	low polyreactivity
QLQLQESGGLVQAGGSLRLSCAASGSISGRNVIGCYRQAPGKEREYVASITDGSSTNYADSVKGRFTISRDNAKNTVYLQMNSLKPKDTAVYYCAAYAQRAKSFGYWGRGTQVTVSS	low polyreactivity
QVQLVESGGGLVQAGGSLRLSCAASGITFNPNAMGWYRQAPGKERELVAVITYRGGSTYYADSVMGRFTISRDNAKNTVYLQMNSLKPADTAVYYCAAQYIGWHLYWYDYWGQGTQVTVSS	low polyreactivity
QVQLVESGGGLVQAGGSLRLSCAASGLTFIVYAMAWYRQAPGKERELVADITWSGGSTYYADSVKGRFTISRDNAKNTVYLQMNSLKPEDTAVYYCNRQSAKIMDYWGQGTQVTVSS	low polyreactivity
QGQLVESGGGLVQAGGSLRLSCAASGRTFDSNAMGWYRQAPGKERELFAAISQRGGRTYYADSVKGRFTISRDNAKNTVYFQMNSLKQVYTAFYYCNKVGRRKLDYWGQGTQVTVSS	high polyreactivity
QVQLVESGGGLVQAGGSLRLSCAASGRTFPPYAMGWYRQAPGKERELVAAISGSGASTYYADSVKGRFTISRDNAKNTVYLQMNSLKPEDTAVYYCARYRGYWGRYYGVDYGYWGQGTQVTVSS	high polyreactivity
QVQLVESGGGLVQAGGSLRLSCAASGSIFEFNAMGWYRQAPGKERELVAAITWGGGSTYYADSVKGRFTISRDNAKNTVYLQMNSLKPEDTAVYYCNAAYGRYRYDYWGQGTQVTVSS	low polyreactivity
QVQLGESGGGLDQAGGSLRLSCAASGRTFTNNAMGWYRQAPGKERELVAAITSGGRTNYADSVKGRFTISRDNAKNTVYLQMNSLKPEDTAVYYFAARIPSDGYYYWGQGTQVTVSS	high polyreactivity
QVQLVESGVGLVQAGGSLRLSCAASGRIFTLNAMGWYRQAPGKERELFAGISRTGGSTYYADSVKVRFPISRDNAKNTVYLQMNSLKPEDTAVYYCAAAGFRRQPGAGAYYYWGQGTQVTVSS	high polyreactivity
QVQLVESGGGLVQAGGSLRLSCAASGRTFSRYVMGWYRQAPGKERELVAAISRTGGRTYYADSVKGRFTISRDNAKNTVYLQMNSLKPEDTAVYYCNAGTVLISTYDYWGQGTQVTVSS	high polyreactivity
QVQLVESGGGLVQAGGSLRLSCAASGSIFRQYAMGWYRQAPGKERELVAAINYSGGNTYYADSVKGRFTISRDNAKNTVYLQMNSLKPEDTAVYYCAADSVRHYWWAYYYWGQGTQVTVSS	low polyreactivity
QVQLVESGGGLVQAGGSLRLSCAASGSIFTVYAMGWYRQAPGKERELVATITGSDGRTDYADSVKGRFTISRDNAKNTVYLQMNSLKPEDTAVYYCAAQVFKWKYRQSLWFDQGYYWGQGTQVTVSS	low polyreactivity

Sequence	polyreactivity (PSR sort gate)
QVQLVESGGGLVQAGGSLRLSCAASGSIFFDGNAMGWYRQAPGKERELVAAISVSGGSTYYADSVKGRFTISRDNAKNTVYLQMNSLKPEDTAVYYCAKYPSKSYVPGDYWGQGTQVTVSS	low polyreactivity
QVQLVESGGGLVQAGGSLRLSCAASGFTFFTYAMGWYRQAPGKERELVAAIRWRGSTTYYADSVKGRFTISRDNAKYTVYLQMNSLKPEDTAVYYCAAELRFRQTGLAYWGDYWGQGTQVTVSS	high polyreactivity
QVQLVESGGGLVQAGGSLRLSCAASGFTFPVYAMGWYRQAPGKEREFVAAITYIGGSTYADSVKGRFTISRDNAKNTVYLQMNSLKPEDTAVYYCNADDARLFDYWGQGTQVTVSS	low polyreactivity
QVQLVESGGGLVQAGGSLRLSCAASGRTFNWYAMGWYRQAPGKERELVAAIRVNGGITYYADSVKGRFTISRDNAKNTVYLQMISLKPEDTAVYYCAVYSRQGLGYWGQGTQVTVSS	high polyreactivity
QVQLVESGGGLVQAGGSLRLSCAASGSIFGDYVMGWYRQAPGKERELVAAISGNGGRTYYADSVKGRFTISRDNAKNTVYLQMNSLKPEDTAVYYCAKVRSVTIGRDYWGQGTQVTVSS	high polyreactivity
QVQLVESGVGLVQAGGSLRLSCAASGRTFRANAMGWYRQAPGKERELVAAITWDGGSTYYADSVKGRFTISRDNAKNTVYLLMYSLKPEDTAVYYCNTYPYLWGQGTQVTLSS	low polyreactivity
QDQLVESVGGLVQAGVSLRLSCAASGGTFDVNAMGWYRQATGKERELVATISGGGSTNYADSVKGRFTISRDNAKNTVYLQMNSLKPEETAVYYCAAESEPIRNRERDYWGQGTQVTVSS	low polyreactivity
QVHLVESGGGLVQAGGSLRLSCAASGIIFYYNAMGWYRQAPGKERELVAVISSAGNTNYADSVKGRFTISRDNAKNTVYLQMNCLKPEDTAVYYCAAGTISRIDERNYFKMDYWGQGTQVTVSS	low polyreactivity
QVQLVESGGGLVQAGGSLRLSCAASGITFADNAMGWYRQAPGKERELVAANSWSGDRTFYADSVKGRFTISRDNAKNTVYLQMNSLKPEDTAVYYCARDSLQVFYPYASDDYWGQGTQVTVSS	low polyreactivity
QVQLVESGGGLVQAGGSLRLSCAASGRIFYLYAMGWYRQAPGKERELVAAITWSGGSTYYADSVKGRFTISRDNAKNTVYLQMNSLKPEDTAVYYCARDDAYSDFDYDYWGQGTQVTVSS	low polyreactivity
QVQLVESGGGLVQAGGSLRLSCAASGSTFPVYAMGWYRQAPGKERELVASISSGADTNYADSVKGRFTISRDNAKNTVYLQMNSLKPEDTAVYYCAATVPLRTIRPRSYGYWGQGTQVTVSS	low polyreactivity
QVQLVESGGGLVQAGGSLRLSCAASGSIFAFYTMGWYRQAPGKERELVATITRSGRTNYADSVKGRFTISRDNAKNTVYLQMNSLKPEDTAVYYCAAGYLSGNYARYGYWGQGTQVTVSS	high polyreactivity
QVQLVESGGGLVQAGGSLRLSCAASGSIFLYYVMGWYRQAPGKERELVAAITWDGGSTYYADSVKGRFTISRDNAKNTVYLQMNSLKPEDTAVYYCNKDTTYSYYTEPYDYWGQGTQVTVSS	low polyreactivity
QDQHVESGGGLVQAGGSLRLSCAASGTIFSYYAMGWYRQAPGKERELVASISWKGTSTYYADSVKGRFTISRDNSKNTVYLQMNSLKPEDTAVYYCNVRFNYRGTYDYWGQGTQVTVSS	low polyreactivity
QVQLVETGGGLVQAGGSLRLSCASSGRTCVDNTMGWYRQEPGKESELVATITSGDSTNYEESVKGRFTISRDNAKYTVYLQMNSLKPEDTAVYYCAAVTNWYYYYTHRMEYWGQGTQVTVSS	low polyreactivity
QVQLVESGGGLVQAGGSLRLSCAASGFIFRPYVMGWYRQAPGTERELVAAISRSGSSTYYADSVKGRFTISRDNAKNTVYLQMNSLKPEDTAVYYCARRTSQEFDYWGQGTQVTVSS	high polyreactivity
QVQLVESGGGLVQAGGSLRLSCAASGSTLVTNAMGWYRQAPGKERELVAAITFSGGTTYYADSVKGRFTISRDNAKNTVYLQMNSLKPEDTAVYYCAAEIWLEYVGYDYWGQGTQVTVSS	high polyreactivity
QVQLVESGVGLVQAGGSLRLSCAASGLIFYHNAMGWYRQAPGKERELVAAISRSGGRTYYADSVKGRFTISRDNAKNTVYLQMNSLKPEDSAVYYCAVYRSSDFDYWGQGTQVTVSS	high polyreactivity
QVQLVDSGGGLVQAGGSLRLSCAASGYTFVGYAMGWSRQAPGKERELVAVISGSGGSTRYADSVKGRFTISRDNAKNTVYLQMNSLKPEDTAVYYCAARQPRTQAVYEGYYWGQGTQVTVSS	high polyreactivity
QVQLVESGGGLVQAGGSLRLSCAASGIIFPVYAMGWYRQAPGKERELVAAISNRAGSTYYADSVKGRFTISRDNAKNSVYLQMNSLKPEDTAVYYCAAASRRSGASSWYDYWGQGTQVTVSS	high polyreactivity
QVQLVESGGGLFQAGGSLRLSCAASGTTLVRYAMGWYRQAPGIERELVASISYSGGSTHYADSVKGRFTISRDNAKNTVYLQMNSLKPEDTAVDYWAARPYYSWGGHYYWGQGTQVTVSS	high polyreactivity
